The source of these data is patent publication US20210269476A1.

For assay [1], the target named is human serum-derived IgG polyclonal antibody (WAKO) (human). As to the kind of experiment: affinity column breakthrough curve; scFv (5.0 mg) immobilized on HiTrap NHS-activated HP 1 mL, polyclonal human IgG 1 mg/mL at 1 mL/min.
For assay [2], the target named is human IgG1 (coupled to the sensor chip) (human). As to the kind of experiment: SPR, Biacore X-100, single cycle kinetics, human IgG1 coupled to the chip, scFv as analyte. In general terms: SPR reads the build-up and loss of mass on a sensor chip optically.
Assay [3] addresses human serum-derived IgG polyclonal antibody (WAKO) (human). Kind of assay: affinity column breakthrough curve; scFv immobilized on HiTrap NHS-activated HP 1 mL, polyclonal human IgG 1 mg/mL at 1 mL/min.

B1: R3-26 repCK+K5 (scFv)
scFv: QEQLVESGGGLVTPGGTLTLTCTVSGIDLSSYAMSWVRQVPGEGLEWIGIIGSGGGTAYANWARGRFTISRTSSTTVDLRMTSLTTEDTATYFCATDYGIYGYAYGHLWGPGTLVTVTSGGGGSGGGGSGGGGSELVMTQTASPVSAAVGGTVTINCQASQSISTALAWYQQRPGQPPRLLIYDASTLASGVSSRFSGSGSGTEFTLTISDLESADAATYYCQTYFGSDTDNAFGEGTEVEITGSAAAGGGGSKKKKKIE
As a reminder, the Kd is the concentration at which binding is half-saturated. Usually koff stands for the first-order rate constant of dissociation. A high value points to a short-lived complex. The term kon denotes the rate constant with which the complex forms. Consider B1, for which the [10% DBC (mg/mL) at flow rate of 1.0 mL/min]/[amount of protein immobilized on column (mg)] in assay [1] is 1.4 (mg/mL)/mg. In assay [2], this molecule yielded an equilibrium dissociation constant (Kd) of 2.4 nM, a koff of 0.00017 s⁻¹ and a kon of 70000 M⁻¹ s⁻¹.

B2: R3-26 repCK+K (scFv)
scFv: QEQLVESGGGLVTPGGTLTLTCTVSGIDLSSYAMSWVRQVPGEGLEWIGIIGSGGGTAYANWARGRFTISRTSSTTVDLRMTSLTTEDTATYFCATDYGIYGYAYGHLWGPGTLVTVTSGGGGSGGGGSGGGGSELVMTQTASPVSAAVGGTVTINCQASQSISTALAWYQQRPGQPPRLLIYDASTLASGVSSRFSGSGSGTEFTLTISDLESADAATYYCQTYFGSDTDNAFGEGTEVEITGSAAAGGGGSKIE
In assay [2], B2 gave a dissociation constant (Kd) of 1.6 nM, a koff of 9.1e-05 s⁻¹ and an association rate constant (kon) of 56000 M⁻¹ s⁻¹. Also, the [10% DBC (mg/mL) at flow rate of 1.0 mL/min]/[amount of protein immobilized on column (mg)] in assay [3] was 0.63 (mg/mL)/mg.

B3: R3-26 repCK+K3 (scFv)
scFv: QEQLVESGGGLVTPGGTLTLTCTVSGIDLSSYAMSWVRQVPGEGLEWIGIIGSGGGTAYANWARGRFTISRTSSTTVDLRMTSLTTEDTATYFCATDYGIYGYAYGHLWGPGTLVTVTSGGGGSGGGGSGGGGSELVMTQTASPVSAAVGGTVTINCQASQSISTALAWYQQRPGQPPRLLIYDASTLASGVSSRFSGSGSGTEFTLTISDLESADAATYYCQTYFGSDTDNAFGEGTEVEITGSAAAGGGGSKKKIE
B3: in assay [1], the [10% DBC (mg/mL) at flow rate of 1.0 mL/min]/[amount of protein immobilized on column (mg)] was 1.26 (mg/mL)/mg. Also, in assay [2], the dissociation constant Kd was determined as 1.7 nM, the off-rate constant (koff) came to 0.0001 s⁻¹ and the on-rate constant (kon) stood at 61000 M⁻¹ s⁻¹.
